Measurements published in article PMC3325936.

How the values were obtained:
[1] = target: GST:Anillin (608–940) (human) (UniProt Q9NQW6); experiment: pull-down; lysates of transfected HEK-293 cells diluted by 0.5-fold, 0.25-fold or 0.05-fold, pulled down with 200 nM GST-tagged AHD; western blot for Myc, % bound protein
[2] = target: GST:Anillin (608–940) (human) (UniProt Q9NQW6); experiment: pull-down; purified MBP- or GST-tagged anillin fragments (200 nM) as bait; lysates of transfected HEK-293 cells; 50 mM Tris pH7.6, 150 mM NaCl, 5 mM MgCl2, 0.5% Triton X-100, 1 mM DTT, 4°C; western blot for Myc

UniProt Q9NQW6, sequence (Q9NQW6 645-977): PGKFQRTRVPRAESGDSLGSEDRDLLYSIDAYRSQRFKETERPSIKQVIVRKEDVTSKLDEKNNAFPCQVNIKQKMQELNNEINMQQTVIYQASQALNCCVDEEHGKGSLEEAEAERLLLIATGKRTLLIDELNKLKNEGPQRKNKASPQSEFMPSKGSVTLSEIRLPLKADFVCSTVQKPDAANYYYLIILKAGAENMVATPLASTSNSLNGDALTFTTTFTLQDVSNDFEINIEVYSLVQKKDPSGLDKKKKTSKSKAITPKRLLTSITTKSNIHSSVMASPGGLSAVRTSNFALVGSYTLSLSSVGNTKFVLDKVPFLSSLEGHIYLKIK

| percent of protein bound at the lowest dilution [1] [%] | fold change of the amount pulled down against wild-type Ect2 (C-term) [2] [fold lower] | Substance |
| --- | --- | --- |
| 38 | – | Myc:Ect2 (421–883) (domain or fragment) |
| – | 0.5 | Myc:Ect2 (421–883; D668G) (domain or fragment) |
